The labels stand for the following.
B1: truncated chicken ASIC1a (residues 14-463), cASIC1a^ΔNC (domain or fragment)
chain: GQPVSIQAFASSSTLHGISHIFSYERLSLKRVVWALCFMGSLALLALVCTNRIQYYFLYPHVTKLDEVAATRLTFPAVTFCNLNEFRFSRVTKNDLYHAGELLALLNNRYEIPDTQTADEKQLEILQDKANFRNFKPKPFNMLEFYDRAGHDIREMLLSCFFRGEQCSPEDFKVVFTRYGKCYTFNAGQDGKPRLITMKGGTGNGLEIMLDIQQDEYLPVWGETDETSFEAGIKVQIHSQDEPPLIDQLGFGVAPGFQTFVSCQEQRLIYLPPPWGDCKATTGDSEFYDTYSITACRIDCETRYLVENCNCRMVHMPGDAPYCTPEQYKECADPALDFLVEKDNEYCVCEMPCNVTRYGKELSMVKIPSKASAKYLAKKYNKSEQYIGENILVLDIFFEALNYETIEQKKAYEVAGLLGDIGGQMGLFIGASILTVLELFDYAYEVIKHR
notes: not shown: His8, N-terminal, cleaved; EGFP, N-terminal, cleaved

Bridge positions count the residues as written; N and C are the ends. Ends that are not written are not given here.

One series addresses T1, chicken ASIC1a (cASIC1a) (Gallus gallus, UniProt Q1XA76).
T1 construct: expressed in transfected cells; host or cells: CHO cells, transient transfection, pcDNA3.1/Zeo(+)
T1 sequence (Q1XA76 1-527): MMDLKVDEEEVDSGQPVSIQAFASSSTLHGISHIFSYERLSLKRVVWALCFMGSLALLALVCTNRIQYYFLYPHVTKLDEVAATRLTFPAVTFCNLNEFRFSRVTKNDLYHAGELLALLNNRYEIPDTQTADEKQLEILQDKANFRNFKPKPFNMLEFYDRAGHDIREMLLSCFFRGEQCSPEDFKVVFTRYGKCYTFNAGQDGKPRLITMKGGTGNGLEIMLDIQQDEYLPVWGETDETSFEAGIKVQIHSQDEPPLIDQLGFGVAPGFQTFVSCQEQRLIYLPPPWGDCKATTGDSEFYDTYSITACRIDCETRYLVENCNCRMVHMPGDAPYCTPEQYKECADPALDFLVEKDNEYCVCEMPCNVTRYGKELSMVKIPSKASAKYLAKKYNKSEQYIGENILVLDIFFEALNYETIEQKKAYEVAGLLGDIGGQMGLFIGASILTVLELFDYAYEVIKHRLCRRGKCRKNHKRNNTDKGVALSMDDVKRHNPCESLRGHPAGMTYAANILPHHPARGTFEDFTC
In words: whole-cell patch clamp in CHO cells, inhibition of chicken ASIC1a. The conditions noted are these: for effect of mambalgin-1 point mutants on wild-type cASIC1a: 500 nM, means ± S.E., t-test versus WT, n = 4–13, bar graph Fig. 3e, values not given. Format: cell-based. The text has this:
(§1) Fig. 1 Chemical synthesis and bioactivity analysis of mambalgin-1. a Synthetic route of mambalgin-1 and its mutants. b Synthetic mambalgin-1 inhibits recombinant human and chicken ASIC1a (hASIC1a and cASIC1a) channels in CHO cells. After two stable records of acid currents that were elicited by a pH drop from 7.4 to 6.0 for 4 s, synthetic mambalgin-1 was applied at pH 7.4 for 30 s followed by another application during a 4spH drop to 6.0. c Concentration–response curve showing the inhibition of hASIC1a and cASIC1a channels expressed in CHO cells (n = 3–14) by synthetic wild-type mambalgin-1
The coding sequence for wild-type cASIC1a was sub-cloned into the pcDNA3.1/Zeo( + ) vector. All site-directed mutations were generated with overlap PCR and inserted into pcDNA3.1/Zeo(+). The mutants were sequenced to verify that no unwanted mutations had been introduced. Chinese hamster ovary (CHO) cells were cultured in DMEM/F12 medium (Gibco) supplemented with 10% fetal bovine serum (FBS), 100 U/mL penicillin, and 100 U/mL streptomycin at 37 °C in a 5% CO2 incubator. The CHO cells were transferred to 24-well plates for transfection. When the CHO cells reached 90% confluence, they were transfected with 0.6 μg of plasmid encoding EGFP and 0.8 μg of plasmid encoding wild-type or mutant cASIC1a using Lipofectamine 2000 (Invitrogen, USA). After incubation for 5 h, the cells were transferred to poly-L-lysine (Sigma)-coated slides for culture for another 24–48 h in fresh medium. They were then used for the electrophysiological analysis.
For the whole-cell recordings, the bath solution contained 150 mM NaCl, 4 mM KCl, 2 mM CaCl2, 1 mM MgCl2, and 10 mM HEPES (pH 7.4, ~308 mOsm). For acidic solution below pH 6.0, HEPES was replaced by 10 mM MES to buffer solutions. The electrodes were pulled from thick-walled borosilicate glass capillaries with filaments (1.5 mm diameter; Sutter Instruments) on a four-stage puller (P-1000; Sutter, USA) and had resistances of 2–5 MΩ when filled with intracellular solution containing 140 mM KCl, 10 mM NaCl, 5 mM EGTA, 10 mM HEPES, (pH 7.4, ~297 mOsm). All chemicals were obtained from Sigma. The experiments were performed at room temperature with an EPC-10 amplifier (HEKA Electronic) with the data acquisition software PatchMaster. Membrane potential was held at −70 mV in all experiments. Acid-induced currents were recorded by rapidly exchanging local solution from pH 7.4 to acidic pH through a Y-tube perfusion system. Toxins were applied 30 s before the pH decreased and persisted during low pH application. Channels were activated by acid perfusion at least every 2 min to allow for a complete recovery of the channels from desensitization. Recordings in which access resistance or capacitance changed by 10% during the experiment were excluded from data analysis. Mambalgin-1 was added when the currents were stable.
The data were analyzed with Clampfit and SigmaPlot. The dose–response curves used to determine the IC50 values were fitted using the Hill equation: y = 1 + (Imax−1)/(1 + (IC50/x)^h), where y represents the normalized current, Imax represents the control current of ASIC1 detected in each set of experiments; x is the toxin concentration, h is the Hill coefficient, and IC50 is the half-maximal concentration. The results are presented as the means ± standard errors (SE), and n is the number of experiments.
On the technique in general: The patch-clamp technique gives a direct electrical read-out from membranes.

For another series, the target named is T2, human ASIC1a (hASIC1a) (Homo sapiens, UniProt P78348).
T2 construct: expressed in transfected cells; host or cells: CHO cells
T2 sequence (P78348 1-528): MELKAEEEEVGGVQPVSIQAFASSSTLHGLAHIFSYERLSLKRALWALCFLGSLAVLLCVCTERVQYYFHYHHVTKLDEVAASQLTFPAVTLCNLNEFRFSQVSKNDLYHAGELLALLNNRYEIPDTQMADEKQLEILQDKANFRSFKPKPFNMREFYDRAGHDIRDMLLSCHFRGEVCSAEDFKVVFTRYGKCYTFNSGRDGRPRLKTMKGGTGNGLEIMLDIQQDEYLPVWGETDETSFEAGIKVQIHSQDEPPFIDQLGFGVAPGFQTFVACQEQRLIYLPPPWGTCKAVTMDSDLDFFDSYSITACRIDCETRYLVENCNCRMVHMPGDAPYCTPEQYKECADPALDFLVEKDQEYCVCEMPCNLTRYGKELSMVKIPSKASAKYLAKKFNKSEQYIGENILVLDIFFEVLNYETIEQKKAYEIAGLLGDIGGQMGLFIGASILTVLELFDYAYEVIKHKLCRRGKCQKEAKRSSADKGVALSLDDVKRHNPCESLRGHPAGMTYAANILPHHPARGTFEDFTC
Kind of series: whole-cell patch clamp in CHO cells, inhibition of human ASIC1a. The class given is cell-based. The conditions noted are these: synthetic mambalgin-1, whole-cell recording at −70 mV, pH drop from 7.4 to 6.0 for 4 s, toxin applied 30 s before at pH 7.4 and during acid, room temperature, Hill fit, mean ± SE, n = 3–14.
Excerpt: as §1
The coding sequence for wild-type cASIC1a was sub-cloned into the pcDNA3.1/Zeo( + ) vector. […]
For the whole-cell recordings, the bath solution contained 150 mM NaCl, 4 mM KCl, 2 mM CaCl2, 1 mM MgCl2, and 10 mM HEPES (pH 7.4, ~308 mOsm). […] Acid-induced currents were recorded by rapidly exchanging local solution from pH 7.4 to acidic pH through a Y-tube perfusion system. […]
The data were analyzed with Clampfit and SigmaPlot. The dose–response curves used to determine the IC50 values were fitted using the Hill equation: y = 1 + (Imax−1)/(1 + (IC50/x)^h), where y represents the normalized current, Imax represents the control current of ASIC1 detected in each set of experiments; x is the toxin concentration, h is the Hill coefficient, and IC50 is the half-maximal concentration. […]

For another series, the system named is mice. The conditions noted are these: cited from earlier work. The text has this:
Mambalgin-1, a toxin isolated from black mamba venom, is a disulfide-rich polypeptide consisting of 57 amino acids and belongs to the family of three-finger toxins[31],[38].

For a further series, the system named is ASIC1a. The following applies: cited from earlier work. From the text: Mambalgin-1 can bind to and stabilize ASICs in a physiologically relevant closed-channel conformation, but the underlying binding and inhibition mechanism remains elusive. […] Previously, a docked structure of the cASIC1a–mambalgin-1 complex was reported[23],[24], following the crystal structure of the cASIC1a–PcTx1 complex. Mambalgin-1 was predicted to insert into the acidic pocket (also known as the acid-sensing pocket) inside t ...

Series [1] deals with the molecule itself. Kind of series: cryo-EM structure; […] 5.7 Å overall map, 5.4 Å map of the extracellular part; poly-alanine model by rigid-body fitting of crystal structures.
Series [2] has as its target B1. In words: cryo-EM structure. The conditions noted are these: both partners purified.

As to “F27A: mutation of mambalgin-1 in the Finger II region (LKCYQHGKVVTCHRDMKFCYHNTGMPARNLKLILQGCSSSCSETENNKCCSTDRCNK; disulfide (positions not given here); ends not checked; UniProt P0DKR6 22-78, looked up, variant F27A)”, the “effect of mambalgin-1 point mutants on wild-type cASIC1a” value (shortened to “effect of mambalgin-1 point mutants”) in the series with chicken ASIC1a (cASIC1a) is listed as “perturbed the inhibitory effects of the cASIC1a channel”.

Consider “H6A: mutation of mambalgin-1 in the Finger I region (LKCYQAGKVVTCHRDMKFCYHNTGMPFRNLKLILQGCSSSCSETENNKCCSTDRCNK; disulfide (positions not given here); ends not checked; UniProt P0DKR6 22-78, looked up, variant H6A)”, for which the “effect of mambalgin-1 point mutants” value in the series with chicken ASIC1a (cASIC1a) was “perturbed the inhibitory effects of the cASIC1a channel”.

As for “K8A: mutation of mambalgin-1 in the Finger I region (LKCYQHGAVVTCHRDMKFCYHNTGMPFRNLKLILQGCSSSCSETENNKCCSTDRCNK; disulfide (positions not given here); ends not checked; UniProt P0DKR6 22-78, looked up, variant K8A)”, in the series with chicken ASIC1a (cASIC1a), the “effect of mambalgin-1 point mutants” value is reported as “perturbed the inhibitory effects of the cASIC1a channel”.

Broadly, the IC50 is the midpoint of a concentration-inhibition curve. Low readings indicate greater potency, high ones weaker potency. For “LKCYQHGKVVTCHRDMKFCYHNTGMPFRNLKLILQGCSSSCSETENNKCCSTDRCNK-NH2 (disulfide 3-19, 12-37, 41-49, 50-55) [mambalgin-1]”, the IC50 is 124 ± 20.3 nM against chicken ASIC1a (cASIC1a) (synthetic mambalgin-1, whole-cell recording at −70 mV, pH drop from 7.4 to 6.0 for 4 s, toxin applied 30 s before at pH 7.4 and during acid, room temperature, Hill fit, mean ± SE, n = 3–14); 197 ± 18.7 nM on human ASIC1a (hASIC1a). In addition, the “adverse side effects relative to traditional opioid drugs” value in the series on mice is given as “fewer adverse side effects than traditional opioid drugs”.

On to “PcTx1 (EDCIPKWKGCVNRHGDCCEGLECWKRRRSFEVCVPKTPKT; ends and bridges not checked; cysteine pairing not given here; UniProt P60514 1-40, looked up)”, for which the “channel states bound, PcTx1” value in the series with ASIC1a is “binds tightly to the open and desensitized states of ASIC1a”.

With “Q5A: mutation of mambalgin-1 in the Finger I region (LKCYAHGKVVTCHRDMKFCYHNTGMPFRNLKLILQGCSSSCSETENNKCCSTDRCNK; disulfide (positions not given here); ends not checked; UniProt P0DKR6 22-78, looked up, variant Q5A)”, the “effect of mambalgin-1 point mutants” value with chicken ASIC1a (cASIC1a) is “perturbed the inhibitory effects of the cASIC1a channel”.

Regarding “R28A: mutation of mambalgin-1 in the Finger II region (LKCYQHGKVVTCHRDMKFCYHNTGMPFANLKLILQGCSSSCSETENNKCCSTDRCNK; disulfide (positions not given here); ends not checked; UniProt P0DKR6 22-78, looked up, variant R28A)”, the “effect of mambalgin-1 point mutants” value in the series with chicken ASIC1a (cASIC1a) is “perturbed the inhibitory effects of the cASIC1a channel”.

Broadly, the stoichiometry N is the number of molecules, sites or subunits per partner or assembly. B1: the “stoichiometry N” value in series [1] is 3.

B2: mambalgin-1 (peptide)
chain: LKCYQHGKVVTCHRDMKFCYHNTGMPFRNLKLILQGCSSSCSETENNKCCSTDRCNK
notes: also called synthetic mambalgin-1; wild-type mambalgin-1
Take B2: the “stoichiometry N” value in series [2] is 3 mambalgin-1 per cASIC1a trimer.

Values taken from article PMC5986765 (Cell Discovery, 2018).
